What was measured:
[1] = molecular target: T1, AUF1 p37 C207E (UniProt Q14103-4 1-287, C207E); assay: EMSA
[2] = molecular target: AUF1 p37 (UniProt Q14103-4 1-287); assay: fluorescence anisotropy
[3] = molecular target: T1, AUF1 p37 C207E; assay: fluorescence anisotropy
[4] = molecular target: AUF1 p42 (UniProt Q14103-2 1-336); assay: fluorescence anisotropy
[5] = molecular target: AGO2 (hAGO2) (human, UniProt Q9UKV8 1-859); assay: single-molecule fluorescence
[6] = molecular target: HILI (hHILI) (human, UniProt Q8TC59 1-973); assay: single-molecule fluorescence
HILI (hHILI), sequence (Q8TC59 whole entry): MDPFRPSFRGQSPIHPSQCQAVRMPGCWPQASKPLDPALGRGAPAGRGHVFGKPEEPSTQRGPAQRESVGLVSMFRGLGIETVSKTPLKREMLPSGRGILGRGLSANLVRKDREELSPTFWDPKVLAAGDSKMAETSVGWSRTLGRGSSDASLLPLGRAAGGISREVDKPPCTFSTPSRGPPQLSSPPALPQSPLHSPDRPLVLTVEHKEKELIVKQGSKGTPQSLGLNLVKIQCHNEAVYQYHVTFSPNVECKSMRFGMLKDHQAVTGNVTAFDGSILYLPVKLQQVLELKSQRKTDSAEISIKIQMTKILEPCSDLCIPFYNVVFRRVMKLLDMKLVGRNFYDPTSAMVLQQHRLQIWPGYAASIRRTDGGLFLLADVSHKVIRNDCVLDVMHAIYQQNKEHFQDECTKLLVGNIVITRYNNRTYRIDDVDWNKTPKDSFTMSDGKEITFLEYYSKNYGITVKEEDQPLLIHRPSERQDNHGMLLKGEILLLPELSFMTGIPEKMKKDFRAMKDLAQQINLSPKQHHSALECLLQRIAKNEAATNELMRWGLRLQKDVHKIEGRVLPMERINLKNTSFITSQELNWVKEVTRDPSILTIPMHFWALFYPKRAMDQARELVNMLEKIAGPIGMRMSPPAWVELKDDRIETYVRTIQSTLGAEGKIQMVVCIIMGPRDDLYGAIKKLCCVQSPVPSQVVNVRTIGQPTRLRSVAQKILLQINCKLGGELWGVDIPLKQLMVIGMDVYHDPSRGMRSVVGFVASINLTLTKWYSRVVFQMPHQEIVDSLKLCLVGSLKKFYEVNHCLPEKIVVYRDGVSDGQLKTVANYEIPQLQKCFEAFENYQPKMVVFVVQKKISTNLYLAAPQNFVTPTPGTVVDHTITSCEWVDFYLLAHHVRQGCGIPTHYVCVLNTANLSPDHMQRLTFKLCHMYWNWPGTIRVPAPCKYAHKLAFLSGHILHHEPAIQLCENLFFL

AGO2 (hAGO2), sequence (Q9UKV8 whole entry): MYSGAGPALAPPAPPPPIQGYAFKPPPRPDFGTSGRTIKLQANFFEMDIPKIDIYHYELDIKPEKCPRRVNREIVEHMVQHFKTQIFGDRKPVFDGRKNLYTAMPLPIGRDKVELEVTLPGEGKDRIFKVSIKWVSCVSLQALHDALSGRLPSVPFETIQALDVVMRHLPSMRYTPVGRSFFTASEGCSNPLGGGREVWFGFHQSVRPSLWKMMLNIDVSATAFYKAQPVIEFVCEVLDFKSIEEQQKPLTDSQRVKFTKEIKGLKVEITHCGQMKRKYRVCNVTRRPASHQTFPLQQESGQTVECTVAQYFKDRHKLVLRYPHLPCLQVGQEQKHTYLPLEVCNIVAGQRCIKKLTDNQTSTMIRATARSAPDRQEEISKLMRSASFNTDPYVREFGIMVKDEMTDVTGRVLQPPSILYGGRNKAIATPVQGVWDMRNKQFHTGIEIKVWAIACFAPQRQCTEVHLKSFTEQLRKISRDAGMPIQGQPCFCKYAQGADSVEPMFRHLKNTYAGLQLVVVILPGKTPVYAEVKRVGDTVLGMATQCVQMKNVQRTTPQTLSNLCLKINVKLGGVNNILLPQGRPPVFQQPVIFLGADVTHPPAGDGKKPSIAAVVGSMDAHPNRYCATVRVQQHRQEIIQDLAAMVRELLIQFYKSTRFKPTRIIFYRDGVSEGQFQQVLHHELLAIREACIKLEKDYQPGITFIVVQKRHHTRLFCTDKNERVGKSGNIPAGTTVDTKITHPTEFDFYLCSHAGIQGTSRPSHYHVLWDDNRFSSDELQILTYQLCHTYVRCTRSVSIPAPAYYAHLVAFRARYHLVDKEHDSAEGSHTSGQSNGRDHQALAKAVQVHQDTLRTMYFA

## CCCCUGGCUCACAAAUACCUUAUUUAUUUAUUUAG (ssRNA) [canonical AU-rich element]
[1]
  binding result: no binding

## UGAGGUAGUAGGUUGUGUGGUU (ssRNA) [let-7b (Fl)]
[2]
  Kd: 5.9 nM
[3]
  binding result: no binding
[4]
  Kd: 9.7 nM

## UGAGGUAGUAGGUUGUGUGGUU (ssRNA) [let-7b (32P)]
[1]
  binding result: no binding

## CUAUACAACCUACUGCCUUCCC (ssRNA) [let-7b* (32P or 3' Fl)]
[1]
  binding result: no binding

## UGAGGUAGUAGGUUGUGUGGUU (ssRNA, amino-modifier C6 U at position 18 (iAmMC6)) [Cy5-let-7b (internal)]
[5]
  binding result: binds
[6]
  binding result: no binding
